Test results published in article PMC314469, “Protein Interaction Networks by Proteome Peptide Scanning” (PLoS Biology, 2004).

T1: Abp1 SH3 (ABP1_YEAST), P15891
T1 chain: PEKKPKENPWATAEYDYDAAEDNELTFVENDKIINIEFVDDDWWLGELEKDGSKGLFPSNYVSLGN


Target: T1, Abp1 SH3 (ABP1_YEAST), P15891
Assay: SPOT array

Binder	normalised SPOT signal, Boehringer light units (BLU); mean over the file's lines of this peptide
VDRGVGEWYKPDRP [YNL108C 86-99]	172
VILDARLPKNVKP [YDR107C 200-212]	99.6
TSSSPLGPSAAKP [YDL224C 233-245]	133
VSGTRQSPIPKKP [YML007W 309-321]	935
VIRNFRFVGLPKKP [YPR155C 202-215]	145
VITPSQLPNSVRP [YFL036W 250-262]	214
VELVTVRPLDEKP [YJL105W 434-446]	20.9
VADVQWSPHPAKP [YDR128W 70-82]	66.3
TYFSVEAPPSIRP [YEL044W 99-111]	76.1
TPLSKPKPFMHKP [YBL031W 191-203]	11300
TSKHWVLPPRPRP [YKL109W 65-77]	3940
VDQLDTASIHPSRP [YGL115W 118-131]	110
VDDYNASFELPLKP [YGL134W 27-40]	95.4
VEVDMSLPENQKP [YBR111C 165-177]	20.2
VENLGTNVTPPLRP [YPL242C 22-35]	64.4
VFYENNSPEKEKP [YOR129C 465-477]	118
VFSGVTNQPSPIRP [YER129W 661-674]	98.3
VFKDPEGDYKPIKP [YLR084C 1187-1200]	-0
VAFILLTPIHSRP [YGL160W 214-226]	48.3
VSDKTKKKTVPVKP [YBL017C 681-694]	171

Binder	normalised SPOT signal, Boehringer light units (BLU); mean over the file's lines of this peptide
TYQTLHSPKKFKP [YOR022C 44-56]	176
VDTFEDEPDKLKP [YGR210C 280-292]	93.9
VEKINTFKTLPTKP [YDL202W 178-191]	385
TVKKPARPWRAKP [YKL220C 449-461]	356
VDRDSAIFYLPQRP [YKL188C 543-556]	66.1
VEFKKDLEEGPTKP [YML074C 275-288]	82
VIIEFSSPNIAKP [YDR341C 145-157]	38.1
TVADTLQPGLPHKP [YKL148C 463-476]	169
TTAQDGSSALPSKP [YLR431C 386-399]	133
TSKMLKPPKQRRP [YDR389W 475-487]	617
VERNFTDPGDGKP [YMR238W 135-147]	73
VEEYWGKKFEPERP [YJR137C 1184-1197]	89.3
VAIIRYKPYLDRP [YPL221W 502-514]	156
TVEYIRPETLPKKP [YNR051C 370-383]	65.5
VKDYWEHPQAYKP [YMR250W 428-440]	12.6
VGNYAYGAGHPMKP [YNL330C 29-42]	97.4
TTTYKSRPDRPKP [YBR289W 757-769]	1770
TTPTIETPISSKP [YJL005W 370-382]	38.3
VAIIYYKPYLDRP [YGL139W 508-520]	76.3
VEYDYVDPRQLKP [YGL236C 383-395]	51.9

Binder	normalised SPOT signal, Boehringer light units (BLU); mean over the file's lines of this peptide
VEQSATIPESIKP [YGL238W 669-681]	27.7
VIWQATTPVDVKP [YLR381W 153-165]	57.5
TYVHAWDMRSPHRP [YDR128W 137-150]	489
VIAVNDNPVVPRP [YOR324C 73-85]	140
TVQRYYKTTVPTKP [YKR084C 138-151]	352
TSLFDNIPSIYRP [YGL169W 124-136]	43.4
TVPTNHVPNYIKP [YGR165W 78-90]	3.6
VDGGMAFNPDPKKP [YER095W 331-344]	74.7
TTKKQENPQWLRP [YBL014C 33-45]	126
VFSKMAKKLLPYKP [YBR270C 205-218]	896
TPPLESGPLFKRP [YDR379W 561-573]	55.6
TTKGENIKITPQKP [YJR122W 470-483]	166
VIAILNPEVLPWRP [YIL150C 263-276]	78.9
TTVPQQLPLEPLKP [YOR329C 400-413]	104
VGGNPDIPSLLKP [YHR080C 52-64]	87.4
TVIYANAPIEEKP [YLR414C 249-261]	191
VDGLSNPPTLLRP [YGL169W 237-249]	21.8
TRKSVNIKSWPLKP [YNL226W 110-123]	124
TTGLNGSPTRGKP [YLL003W 876-888]	83.1
